Article PMC5590881, “Xenon for tunnelling analysis of the efflux pump component OprN” (PLoS ONE, 2017)

Biological target: the molecule itself
Assay: crystal structure; OprN-wt crystals and OprN-Xe crystals (OprN-wt crystals under 2 MPa xenon), space group I4, T = 100 K; grown at 18°C in 100 mM sodium acetate pH 5.4, 0.8–1.1 M sodium formate, 9–11% PEG 4000; protein in 0.9% β-OG

B1: OprN, the outer membrane channel of the MexEF efflux pump from Pseudomonas aeruginosa (natural protein)
chain: CTVGPDYRTPDTAAAKIDATASKPYDRSRFESLWWKQFDDPTLNQLVEQSLSGNRDLRVAFARLRAARALRDDVANDRFPVVTSRASADIGKGQQPGVTEDRVNSERYDLGLDSAWELDLFGRIRRQLESSDALSEAAEADLQQLQVSLIAELVDAYGQLRGAQLREKIALSNLENQKESRQLTEQLRDAGVGAELDVLRADARLAATAASVPQLQAEAERARHRIATLLGQRPEELTVDLSPRDLPAITKALPIGDPGELLRRRPDIRAAERRLAASTADVGVATADLFPRVSLSGFLGFTAGRGSQIGSSAARAWSVGPSISWAAFDLGSVRARLRGAKADADAALASYEQQVLLALEESANAFSDYGKRQERLVSLVRQSEASRAAAQQAAIRYREGTTDFLVLLDAEREQLSAEDAQAQAEVELYRGIVAIYRSLGGGWQPSA
modifications: palmitoylation at the N-terminus Cys residue (dual acylation observed at the same cysteine)
notes: OprN, outer membrane factor of the MexEF-OprN efflux pump, Pseudomonas aeruginosa; the oprN gene was cloned; the chain in the crystal begins at the acylated Cys; 1341 amino acids built in the trimer; Homotrimer in the crystal (chains A, B, C); also called OprN-wt; OprN-Xe; source: C43-ΔacrB strain, pBAD-33, purified from the outer membrane (DDM, β-OG; Ni-NTA, Superose 6 SEC); not shown: His6, …
stoichiometry N: 3
